± gives the standard deviation of the averaged measurements.
B1: library; a variant is named by its letters at N, in order (parent)
chain: GCUGUCACCGAGAAACUGUGAAGUAUAUCUUAAACCUGGGCACUUAAAAGAUAUAUGGAGUUAGUAGUGCAACCUGCUCGGUCUGAUGAGUCCNNNNNNGGACGAAACAGC

Tests used:
[1] = variants of: B1; assay: FACS-Seq fitted mean relative fluorescence mCherry/BFP without ligand (log10 relative fluorescence); HEK293T; ligand: cyclic di-GMP (c-di-GMP-II aptamer); higher = higher reporter protein expression; settings: ligand present: no
How it was run: (§1)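 Cells were sorted into 6 bins on the mCherry/BFP ratio after 48 h with or without ligand. These were enriched HEK293T cells transduced by lentivirus with a ribozyme-switch mCherry reporter plus an EF1α-BFP marker. Fluorescence was obtained by fitting a normal distribution to sequencing-derived bin counts. Counts came from MiSeq sequencing of PCR-amplified, barcoded genomic DNA, binned by log10(mCherry/BFP), with means scaled to five spiked-in control ribozymes.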

[2] = variants of: B1; assay: normalized RNA/DNA level without ligand (relative to sTRSVctl = 100) (log10 (% of sTRSVctl)); HEK293T; ligand: cyclic di-GMP (c-di-GMP-II aptamer); higher = less ribozyme self-cleavage, higher mRNA level; settings: reporter: mCherry (pCS4076), ligand present: no
Protocol: (§2)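 Hammerhead (sTRSV) ribozyme switch libraries with a ligand aptamer grafted on stem I and a randomized N4-6 loop II, cloned into the 3' UTR of mCherry and transiently transfected into HEK293T cells; RNA-Seq 72 h post transfection with ligand added 1 h before transfection; RNA read count / plasmid DNA read count normalized to the non-cleaving sTRSVctl (x100), log10; sequences with >100 DNA reads. FACS-Seq: lentiviral library sorted into 6 bins after 48 h ligand, log-normal fit mean of mCherry/BFP scaled to controls. Printed sequences are partial switch sequences.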

[3] = variants of: B1; assay: FACS-Seq fitted mean relative fluorescence mCherry/BFP with ligand (log10 relative fluorescence); HEK293T; ligand: cyclic di-GMP (c-di-GMP-II aptamer); ligand concentration (+) FACS-Seq: 1 mM; higher = higher reporter protein expression; settings: ligand present: yes
How it was run: as §1

[4] = variants of: B1; assay: normalized RNA/DNA level with ligand (relative to sTRSVctl = 100) (log10 (% of sTRSVctl)); HEK293T; ligand: cyclic di-GMP (c-di-GMP-II aptamer); ligand concentration (+) RNA-Seq: 1 mM; higher = less ribozyme self-cleavage, higher mRNA level; settings: reporter: mCherry (pCS4076), ligand present: yes
Protocol: as §2

Variant	FACS-Seq fitted mean (log10) [1]	normalized RNA/DNA level without ligand (log10) [2]	FACS-Seq fitted mean (log10) [3]	normalized RNA/DNA level with ligand (log10) [4]
GCUGUCACCGAGAAACUGUGAAGUAUAUCUUAAACCUGGGCACUUAAAAGAUAUAUGGAGUUAGUAGUGCAACCUGCUCGGUCUGAUGAGUCCAGUGACGGACGAAACAGC	-0.339 ± 0.017	1.63 ± 0.038	-0.00165 ± 0.05	1.77 ± 0.13
GCUGUCACCGAGAAACUGUGAAGUAUAUCUUAAACCUGGGCACUUAAAAGAUAUAUGGAGUUAGUAGUGCAACCUGCUCGGUCUGAUGAGUCCACCACCGGACGAAACAGC	-0.899 ± 0.064	1.6 ± 0.088	-0.618 ± 0.019	1.76 ± 0.097
GCUGUCACCGAGAAACUGUGAAGUAUAUCUUAAACCUGGGCACUUAAAAGAUAUAUGGAGUUAGUAGUGCAACCUGCUCGGUCUGAUGAGUCCGAAUGAGGACGAAACAGC	-0.606 ± 0.037	1.48 ± 0.06	-0.296 ± 0.056	1.65 ± 0.16
GCUGUCACCGAGAAACUGUGAAGUAUAUCUUAAACCUGGGCACUUAAAAGAUAUAUGGAGUUAGUAGUGCAACCUGCUCGGUCUGAUGAGUCCGAUCAUGGACGAAACAGC	-0.326 ± 0.12	1.63 ± 0.051	-0.0439 ± 0.023	1.79 ± 0.14
GCUGUCACCGAGAAACUGUGAAGUAUAUCUUAAACCUGGGCACUUAAAAGAUAUAUGGAGUUAGUAGUGCAACCUGCUCGGUCUGAUGAGUCCUAACGGGGACGAAACAGC	-0.162 ± 0.15	1.6716 ± 2.5e-05	0.21 ± 0.0062	1.82 ± 0.1
GCUGUCACCGAGAAACUGUGAAGUAUAUCUUAAACCUGGGCACUUAAAAGAUAUAUGGAGUUAGUAGUGCAACCUGCUCGGUCUGAUGAGUCCAUAGACGGACGAAACAGC	-0.109 ± 0.028	1.61 ± 0.05	0.0802 ± 0.041	1.76 ± 0.091
GCUGUCACCGAGAAACUGUGAAGUAUAUCUUAAACCUGGGCACUUAAAAGAUAUAUGGAGUUAGUAGUGCAACCUGCUCGGUCUGAUGAGUCCCCAUUGGGACGAAACAGC	-0.474 ± 0.062	1.28 ± 0.11	-0.134 ± 0.034	1.55 ± 0.093
GCUGUCACCGAGAAACUGUGAAGUAUAUCUUAAACCUGGGCACUUAAAAGAUAUAUGGAGUUAGUAGUGCAACCUGCUCGGUCUGAUGAGUCCGAGCUGGGACGAAACAGC	0.303 ± 0.085	1.82 ± 0.078	0.439 ± 0.013	1.89 ± 0.1
GCUGUCACCGAGAAACUGUGAAGUAUAUCUUAAACCUGGGCACUUAAAAGAUAUAUGGAGUUAGUAGUGCAACCUGCUCGGUCUGAUGAGUCCCGGUCCGGACGAAACAGC	-0.137 ± 0.077	1.8527 ± 0.0016	0.251 ± 0.017	1.96 ± 0.069
GCUGUCACCGAGAAACUGUGAAGUAUAUCUUAAACCUGGGCACUUAAAAGAUAUAUGGAGUUAGUAGUGCAACCUGCUCGGUCUGAUGAGUCCAGACGCGGACGAAACAGC	-0.232 ± 0.099	1.65 ± 0.066	-0.0488 ± 0.032	1.81 ± 0.098
GCUGUCACCGAGAAACUGUGAAGUAUAUCUUAAACCUGGGCACUUAAAAGAUAUAUGGAGUUAGUAGUGCAACCUGCUCGGUCUGAUGAGUCCAACACUGGACGAAACAGC	0.049 ± 0.17	1.68 ± 0.033	0.373 ± 0.032	1.81 ± 0.096
GCUGUCACCGAGAAACUGUGAAGUAUAUCUUAAACCUGGGCACUUAAAAGAUAUAUGGAGUUAGUAGUGCAACCUGCUCGGUCUGAUGAGUCCUCGUACGGACGAAACAGC	0.087 ± 0.015	1.653 ± 0.01	0.277 ± 0.023	1.81 ± 0.14
GCUGUCACCGAGAAACUGUGAAGUAUAUCUUAAACCUGGGCACUUAAAAGAUAUAUGGAGUUAGUAGUGCAACCUGCUCGGUCUGAUGAGUCCCGGCGCGGACGAAACAGC	-0.498 ± 0.2	1.8 ± 0.044	-0.494 ± 0.095	1.94 ± 0.069
